One series deals with MalE-EspB fusion protein. Description: EspB autophosphorylation gel electrophoresis assay. The class given is biochemical, Staphylococcus aureus. Conditions: purified protein pretreated with 2 M or 0.5 M guanidine-HCl, then dialyzed; [γ-32P]ATP 30 minutes; vs protein not pretreated. As to the method:
Enzyme autophosphorylation activity was assayed as described in Example 4 below. Samples containing equal amounts of purified MalE-EspB fusion that had either been treated or not with guanidine-HCl were incubated with [γ-^32P]ATP for 30 minutes, analyzed by polyacrylamide gel electrophoresis, and exposed to X-ray film. In FIG. 3 the bands show the autophosphorylated protein, and can be quantitated. Lanes 1 and 2 show the activity of purified protein samples that had not been pretreated with guanidine-HCl, whereas the protein samples inlanes 3 and 4 had been pretreated with 2 M and 0.5 M guanidine-HCl, respectively, and dialyzed afterwards against enzyme storage buffer. When the X-ray picture is greatly overexposed, the protein bands become also apparent on lanes 1 and 2. The experiment showes that pretreatment with guanidine-HCl activates MalE-EspB by approximately 40 to 100-fold, a likely consequence of denaturing and then refolding the purified MalE-EspB protein.
Volumes of 18.5 μl of compounds diluted in 6% DMSO or controls of 6% DMSO alone were mixed in a microcentrifuge tube with an equal volume of EspB reaction mixture (containing EspB at 0.58 mg/ml in a salt buffer of 328 mM Tris-HCl [pH 8.0], 225 mM KCl, 0.4 mM PMSF {phenylmethylsulfonyl fluoride}, 1.2 mM DTT, 0.2 mM EDTA, 9.3 mM MnCl2, and 10% glycerol). […]

Series [1] addresses T1, EspA cognate response regulator (UniProt Q5HJX7).
T1 sequence: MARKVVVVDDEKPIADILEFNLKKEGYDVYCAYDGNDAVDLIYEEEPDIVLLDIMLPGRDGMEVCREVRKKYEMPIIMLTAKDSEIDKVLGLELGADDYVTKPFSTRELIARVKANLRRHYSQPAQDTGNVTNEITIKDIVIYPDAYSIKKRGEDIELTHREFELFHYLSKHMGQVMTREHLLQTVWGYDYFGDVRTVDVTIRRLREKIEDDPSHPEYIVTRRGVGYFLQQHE

On to `Cl.N=C(N)N` [guanidine-HCl, Guanidine-HCl], for which the “activation of MalE-EspB autophosphorylation activity by pretreatment” value with MalE-EspB fusion protein fell in the range of 40 to 100 fold.

MalE-EspB fusion protein: in series [1], the “transphosphorylation of EspA by EspB without Ca++, [gamma-32P]ATP, SDS-PAGE and X-ray film” value was “this transphosphorylation requires the presence of Ca^++ whereas autophosphorylation of EspB does not (absence of the EspA band in lane 5)”; the “transphosphorylation of EspA by EspB, [gamma-32P]ATP, SDS-PAGE and X-ray film” value was “EspA is unable to autophosphorylate (lane 3), but that it can be transphosphorylated by its cognate HPK EspB (lane 2)”.

Values taken from US20020004214A1, “Method to detect modulators of histidine kinases” (priority 1999, published 2002).
